Data taken from the supplement of paper PMC9112550, “Optimization of the antimicrobial peptide Bac7 by deep mutational scanning” (BMC Biology, 2022).

Test system: Escherichia coli TOP10
Experiment: shrunken log2 fold change of peptide-encoding DNA abundance (4.5 h post-induction vs induction); higher = less antimicrobial activity (less host growth inhibition)
Details: time post-induction: 4.5 h; library: site-saturation at positions 5, 18, 19, 20
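Note: peptides expressed intracellularly from a pBAD plasmid library in pooled LB shake-flask culture, induced with 0.3% L-arabinose, DNA abundance read by NGS, three biological replicates, DESeq2 with apeglm shrinkage.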

| Sequence | shrunken log2 fold change |
| --- | --- |
| RRIRLRPPRLPRPRPRPAKLPRP | -0.0675 |
| RRIRTRPPRLPRPRPRPQLGPRP | -0.0516 |
| RRIRPRPPRLPRPRPRPPCKPRP | 0.19 |
| RRIRRRPPRLPRPRPRPAKIPRP | 0.117 |
| RRIRGRPPRLPRPRPRPTHTPRP | 0.862 |
| RRIRYRPPRLPRPRPRPHTDPRP | -0.368 |
| RRIRFRPPRLPRPRPRPIQMPRP | -0.0945 |
| RRIRYRPPRLPRPRPRPQKSPRP | -0.208 |
| RRIRVRPPRLPRPRPRPRFDPRP | 0.048 |
| RRIRDRPPRLPRPRPRPSCVPRP | 0.282 |
| RRIRGRPPRLPRPRPRPNHHPRP | 0.491 |
| RRIRARPPRLPRPRPRPLRCPRP | 0.242 |
| RRIRSRPPRLPRPRPRPHCYPRP | -0.302 |
| RRIRRRPPRLPRPRPRPPCPPRP | 0.641 |
| RRIRCRPPRLPRPRPRPHMGPRP | -0.29 |
| RRIRLRPPRLPRPRPRPADCPRP | 0.142 |
| RRIRSRPPRLPRPRPRPDFLPRP | -0.0689 |
| RRIRSRPPRLPRPRPRPDSRPRP | 0.148 |
| RRIRARPPRLPRPRPRPRVDPRP | 0.419 |
| RRIRKRPPRLPRPRPRPRQFPRP | 0.192 |
| RRIRSRPPRLPRPRPRPWHWPRP | 0.211 |
| RRIRQRPPRLPRPRPRPSYDPRP | -0.251 |
| RRIRNRPPRLPRPRPRPGTPPRP | 0.608 |
| RRIRGRPPRLPRPRPRPCAAPRP | 1.89 |
| RRIRARPPRLPRPRPRPPNIPRP | 0.0251 |

| Sequence | shrunken log2 fold change |
| --- | --- |
| RRIRERPPRLPRPRPRPCSCPRP | -0.00783 |
| RRIRMRPPRLPRPRPRPGLLPRP | 0.251 |
| RRIRNRPPRLPRPRPRPRVNPRP | -0.0734 |
| RRIRSRPPRLPRPRPRPKCVPRP | -0.138 |
| RRIRFRPPRLPRPRPRPPRVPRP | 0.605 |
| RRIRIRPPRLPRPRPRPDNDPRP | -0.115 |
| RRIRQRPPRLPRPRPRPGCLPRP | 0.129 |
| RRIRGRPPRLPRPRPRPTEWPRP | 1.23 |
| RRIRMRPPRLPRPRPRPRKHPRP | 0.826 |
| RRIRKRPPRLPRPRPRPRCMPRP | 0.401 |
| RRIRIRPPRLPRPRPRPVWAPRP | -0.0187 |
| RRIRPRPPRLPRPRPRPTGKPRP | 0.102 |
| RRIRVRPPRLPRPRPRPSPNPRP | -0.271 |
| RRIRLRPPRLPRPRPRPADIPRP | -0.00142 |
| RRIRMRPPRLPRPRPRPQMHPRP | 0.947 |
| RRIRKRPPRLPRPRPRPPDNPRP | 0.0807 |
| RRIRWRPPRLPRPRPRPRNDPRP | 0.126 |
| RRIRGRPPRLPRPRPRPCKIPRP | -0.189 |
| RRIRARPPRLPRPRPRPLGMPRP | 0.0985 |
| RRIRGRPPRLPRPRPRPNIGPRP | 0.138 |
| RRIRFRPPRLPRPRPRPKCMPRP | -0.967 |
| RRIRTRPPRLPRPRPRPNMLPRP | -0.45 |
| RRIRARPPRLPRPRPRPFIQPRP | 0.0556 |
| RRIRVRPPRLPRPRPRPSKQPRP | -0.201 |
| RRIRPRPPRLPRPRPRPVDQPRP | -0.256 |

| Sequence | shrunken log2 fold change |
| --- | --- |
| RRIRGRPPRLPRPRPRPDAQPRP | 2.38 |
| RRIRFRPPRLPRPRPRPCCEPRP | -0.414 |
| RRIRARPPRLPRPRPRPGYEPRP | 0.246 |
| RRIRIRPPRLPRPRPRPPKKPRP | -0.114 |
| RRIRCRPPRLPRPRPRPMDEPRP | 0.348 |
| RRIRQRPPRLPRPRPRPEGFPRP | -0.0494 |
| RRIRRRPPRLPRPRPRPGAMPRP | 0.337 |
| RRIRPRPPRLPRPRPRPYQAPRP | -0.0753 |
| RRIRRRPPRLPRPRPRPYYYPRP | -0.9 |
| RRIRRRPPRLPRPRPRPPKVPRP | 0.693 |
| RRIRHRPPRLPRPRPRPSNGPRP | -0.605 |
| RRIRMRPPRLPRPRPRPWMQPRP | 2.38 |
| RRIRARPPRLPRPRPRPCIMPRP | -0.00141 |
| RRIRPRPPRLPRPRPRPDRKPRP | -0.124 |
| RRIRQRPPRLPRPRPRPRYFPRP | -0.247 |
| RRIRMRPPRLPRPRPRPIIMPRP | -0.46 |
| RRIRHRPPRLPRPRPRPYPQPRP | -0.546 |
| RRIRCRPPRLPRPRPRPHGWPRP | 0.267 |
| RRIRMRPPRLPRPRPRPTSSPRP | 0.148 |
| RRIRKRPPRLPRPRPRPVWHPRP | 0.0861 |
| RRIRLRPPRLPRPRPRPKPAPRP | 0.679 |
| RRIRIRPPRLPRPRPRPGPSPRP | 0.108 |
| RRIRTRPPRLPRPRPRPMFVPRP | -0.215 |
| RRIRIRPPRLPRPRPRPWRGPRP | -0.129 |
| RRIRCRPPRLPRPRPRPVYVPRP | -0.483 |

| Sequence | shrunken log2 fold change |
| --- | --- |
| RRIRPRPPRLPRPRPRPNPIPRP | -0.237 |
| RRIRARPPRLPRPRPRPWTGPRP | 0.00192 |
| RRIRMRPPRLPRPRPRPERQPRP | 2.84 |
| RRIRYRPPRLPRPRPRPIQFPRP | -0.00822 |
| RRIRARPPRLPRPRPRPFPGPRP | -0.116 |
| RRIRARPPRLPRPRPRPAVEPRP | 0.666 |
| RRIRCRPPRLPRPRPRPPPKPRP | 1.51 |
| RRIRFRPPRLPRPRPRPSQHPRP | -0.612 |
| RRIRQRPPRLPRPRPRPYDVPRP | -0.00663 |
| RRIRLRPPRLPRPRPRPYPPPRP | -0.866 |
| RRIRPRPPRLPRPRPRPNCQPRP | 0.419 |
| RRIRYRPPRLPRPRPRPNDWPRP | -0.116 |
| RRIRIRPPRLPRPRPRPACIPRP | -0.69 |
| RRIRLRPPRLPRPRPRPMKNPRP | -0.303 |
| RRIRMRPPRLPRPRPRPSGVPRP | 0.0246 |
| RRIRTRPPRLPRPRPRPWPFPRP | -0.0102 |
| RRIRCRPPRLPRPRPRPACIPRP | -0.186 |
| RRIRWRPPRLPRPRPRPTPDPRP | 0.746 |
| RRIRRRPPRLPRPRPRPRSVPRP | 0.234 |
| RRIRPRPPRLPRPRPRPVPKPRP | 0.34 |
| RRIRQRPPRLPRPRPRPLQLPRP | -0.126 |
| RRIRKRPPRLPRPRPRPGDRPRP | 0.886 |
| RRIRVRPPRLPRPRPRPPFYPRP | -0.0377 |
| RRIRRRPPRLPRPRPRPGLAPRP | 0.763 |
| RRIRFRPPRLPRPRPRPNFDPRP | -0.181 |

| Sequence | shrunken log2 fold change |
| --- | --- |
| RRIRKRPPRLPRPRPRPTVDPRP | -0.108 |
| RRIRCRPPRLPRPRPRPGMIPRP | -0.0447 |
| RRIRYRPPRLPRPRPRPQFHPRP | -1.09 |
| RRIRVRPPRLPRPRPRPNNRPRP | -0.276 |
| RRIRWRPPRLPRPRPRPRMDPRP | 0.211 |
| RRIRLRPPRLPRPRPRPKELPRP | 0.0165 |
| RRIRFRPPRLPRPRPRPGGAPRP | 0.263 |
| RRIRSRPPRLPRPRPRPPERPRP | 0.0652 |
| RRIRDRPPRLPRPRPRPPHLPRP | 0.0118 |
| RRIRRRPPRLPRPRPRPWDAPRP | 0.143 |
| RRIRTRPPRLPRPRPRPFPEPRP | -0.41 |
| RRIRCRPPRLPRPRPRPVQTPRP | -0.0555 |
| RRIRCRPPRLPRPRPRPSWYPRP | -0.675 |
| RRIRARPPRLPRPRPRPQPNPRP | 0.396 |
| RRIRDRPPRLPRPRPRPPRMPRP | 0.345 |
| RRIRKRPPRLPRPRPRPENRPRP | 0.246 |
| RRIRGRPPRLPRPRPRPNMGPRP | 0.269 |
| RRIRKRPPRLPRPRPRPEGQPRP | 0.107 |
| RRIRKRPPRLPRPRPRPGYAPRP | 0.223 |
| RRIRPRPPRLPRPRPRPEHLPRP | -0.109 |
| RRIRWRPPRLPRPRPRPNDWPRP | 0.00443 |
| RRIRHRPPRLPRPRPRPCNYPRP | -0.084 |
| RRIRHRPPRLPRPRPRPFFSPRP | -0.253 |
| RRIRPRPPRLPRPRPRPVAYPRP | -0.173 |
| RRIRNRPPRLPRPRPRPYREPRP | 0.0155 |

| Sequence | shrunken log2 fold change |
| --- | --- |
| RRIRGRPPRLPRPRPRPYPTPRP | 0.0422 |
| RRIRYRPPRLPRPRPRPAPYPRP | -0.557 |
| RRIRVRPPRLPRPRPRPNWAPRP | -0.0443 |
| RRIRIRPPRLPRPRPRPDMWPRP | -0.271 |
| RRIRVRPPRLPRPRPRPQICPRP | -0.185 |
| RRIRNRPPRLPRPRPRPADRPRP | -0.00994 |
| RRIRQRPPRLPRPRPRPPRDPRP | 1.25 |
| RRIRVRPPRLPRPRPRPEKSPRP | 0.0304 |
| RRIRTRPPRLPRPRPRPWKSPRP | -0.0257 |
| RRIRPRPPRLPRPRPRPLYKPRP | -0.247 |
| RRIRYRPPRLPRPRPRPIMVPRP | -0.152 |
| RRIRGRPPRLPRPRPRPCNAPRP | 1.45 |
| RRIRVRPPRLPRPRPRPNGKPRP | -0.407 |
| RRIRFRPPRLPRPRPRPWCYPRP | -0.751 |
| RRIRLRPPRLPRPRPRPGKFPRP | 0.117 |
| RRIRKRPPRLPRPRPRPKWMPRP | -0.168 |
| RRIRRRPPRLPRPRPRPVVSPRP | 0.132 |
| RRIRCRPPRLPRPRPRPKKIPRP | 0.00547 |
| RRIRRRPPRLPRPRPRPMPAPRP | 0.203 |
| RRIRWRPPRLPRPRPRPTQYPRP | 0.0537 |
| RRIRMRPPRLPRPRPRPQSWPRP | 0.141 |
| RRIRLRPPRLPRPRPRPMKTPRP | -0.034 |
| RRIRSRPPRLPRPRPRPEMKPRP | 0.114 |
| RRIRGRPPRLPRPRPRPHNFPRP | 0.0511 |
| RRIRVRPPRLPRPRPRPNTGPRP | -0.112 |
